A short description of the data set: soluble on expression in E. coli; label from the status in PepcDB or PDB records.
“MGSDKIHHHHHHMAEWAGGQGTQEQAVDKGPVTTDRPRPDRISPMNTARRLLRYLGHQRLPHVVVQIGCEILGAQRGALYLLDQNQEVTLIAQYPDDKDVQVPDDLDEARLSWHTLHDFLPQLVDCAHDHEARFHYCSGGDCWLTLSIPLQWEGQNIAVVQLSYKPDVTIDQTSMLGLVYEYAELAALTLVQHWRCIHPAHSSGTQAVPPSSLTNDYSFSSGVSLALAVSEAERARIARDLHDGARSAILGVQLHLEALRLACMQGDSLAIQDHLARGRAALDAIEQELSHIVRDLYPPQVGEADFPTVLVNLSERWSAATRIPVEYAFAPNIPVLETAQVIALYRIVQEALANCNRHAQASRVTISLACADDTLLLTVADNGRGGANLRGGGIGLLSMAQRAHAIGASFHIDSPPDQGTRIEVKLPLRRREPDVHVCSGDCHEGADE”: the “soluble on expression in E. coli” value was “not soluble”.

Turning to “MGSDKIHHHHHHMAFTPFPPRQPTASARLPLTLMTLDDWALATITGADSEKYMQGQVTADVSQMAEDQHLLAAHCDAKGKMWSNLRLFRDGDGFAWIERRSVREPQLTELKKYAVFSKVTIAPDDERVLLGVAGFQARAALANLFSELPSKEKQVVKEGATTLLWFEHPAERFLIVTDEATANMLTDKLRGEAELNNSQQWLALNIEAGFPVIDAANSGQFIPQATNLQALGGISFKKGCYTGQEMVARAKFRGANKRALWLLAGSASRLPEAGEDLELKMGENWRRTGTVLAAVKLEDGQVVVQVVMNNDMEPDSIFRVRDDANTLHIEPLPYSLEE”, the “soluble on expression in E. coli” value was “soluble”.

Consider “MGSDKIHHHHHHMAHLSYSPPRNFDALYRQRVFQSHQAVRMHDAAARELADHSLTWRSGNVDAALYKARARRLTLFSFRYGAEVEIAPRPSEEFIVVHHSIRGAAELSVDGQHMVLPQGRTGWMAPRRNWRMRWEAGCEQLILKIPRDMIEAGGIAPMAPLATLPAGLDTQWLLLVQVLLGASSAPTCAGEPAAWVEHIEQGLASLLRAASSCSLPRESSDRNFVARDPIARLQAMEDYMRERLGAPIGLADLSGAAGVSARVLQQTCQRHRQMSPMELLRDMRLDAVHAWLSEHPSANITETALFYGFGHLGRFAAYYRQRFGESPHQTAQRRCCALS”, for which the “soluble on expression in E. coli” value is “not soluble”.

Consider “MGSDKIHHHHHHMAIEITTAEKRLLQRVSIPPRPETLLTVSREAKKSEPDVNVIAESISADMSIAAAVLQVVNSAAYRRAREVDSIQQAVMTLGFRRVFPIVRAVALKSALTSDYDLSEFWRYNEWVAGACVMIAEAIGRPELRDHAYMLGLFQSSGIPVMLAEFDDYADLLNAAESTPWQQVQAKELELFQTSHTTIGALLAQQWKLPKIVVEVIYYLFEDSSIFNHSSELDNLTLDLLGILKISRYAIDLRTRSLAGEEEWQYVQDGVLEHFQIDEFKVDEMLQIVHEELFDTEA”, for which the “soluble on expression in E. coli” value is “not soluble”.

Regarding “MGSDKIHHHHHHMAIIKASTAASVAELTTDIDQQLPQLKAKPFSHELLTTSILTMLGTAAFVGIHHRYRKQHLADARVQDYVRGIYSQMNALQSASHSRSMLRHFRYSCQQAASTWQQAYRLPMNDKQSNSSGLATNNFSAMHTTTMLARPVCWVSGVASMPKDISLINEDNENDFGVVGIDADREVVWQTTMPERVHDIVVQPVFRYEDNTVSNHLNHRQSRDVVVMGRRPSEKFWVLDTATGQVRFAINAATNRHFYGHACYSLDGSKLYVTENDTLSLDGKIGAYAVDKGYQKIAEFDSYGIGPHELIMHPDGETLIIANGGIKTEQASREELNLDTMHPSLVYLNRHDGSLLEQITPEHNQMSVRHLAMHDDGTVMIGIQFQGEKHINVPLVLTHKRGDIKLTPLTMPNNQWQRFHQYIASVAVDSKCNLLCVTTPIGGCAAIFDLTTRALINSVSLPDCAGASIYSRKTGSGKGSVDAEQKSGFIVSDGQGQLTRLSVNDLTILDSELNSDAIAKNNTIGTDIKCHMMSFDNHLQAL”, the “soluble on expression in E. coli” value is recorded as “not soluble”.

“MGSDKIHHHHHHMAIVNRIALDLAKDFIQVLALDENEQEVFNKKLRSNKVLAKLATLSRTDDCEVAVESCGMSHYWRRECEKLGYKTVALPPRFVKAYLQGEKNDANDARAIAEAASRPNRQTVRLKSIEQQDLALMVNQREGFVQTRTQFSNRLRGQLAEYGILLPKRVGTILQRVPEVLEDDSNALTLQSRDLINRLYQMLRAVDEEVKALDKHLATQAERNEDSQRLMTLPGIGPITATSLLALIGDVSEFKRGRNLSEYLGLVPRQNSSGGKDRLGGITKKGNTKLRTLLVHGARSALRVAQQRHDRLSLWAQDVAKRRGNNVAAVALANKHARIIWAMLKNKEDYRMTAA”: the “soluble on expression in E. coli” value was “not soluble”.

For “MGSDKIHHHHHHMAKLMNNKLKKEIIDFAHSIGIDSIGFTTADPFDELKQKLEEYHAKGYASGFEESNISLRTEPKLSLPSARSIIAIAVGYPNKLKGAPKSVKGDRRGMFARASWGQDYHSIMRKRLDKLADFIKEKVPDVEIQSMVDTGVLSDRAVAERAGLGFTGRNGFVISPELGTWSYLGEMLVSIPFEPDDPLLDSCGDCTICVDRCPTGALVGNGQLNSQKCISFLTQTKGYLQDEYRYKIGNRLYGCDTCQQVCPKNRGINTQHDDIVLEPEILKPRLVPLLQMSNKKFKSTYGHLAGAWRGKKPIQRNAIIALAHFKEESAIPELKEVALNDPRPMIRGTAYWAIGQILEDDAISFIDEHYENEIEEVQLEMKKGLQMRREQK”, the “soluble on expression in E. coli” value is “not soluble”.

In the case of “MGSDKIHHHHHHMALKHYKNSDSTVFNDAKALFDLNKNILLKGPTGSGKTKLAETLSEVVDTPMHQVNCSVDLDTESLLGFKTIKTNAEGQQEIVFVDGPVIKAMKEGHILYIDEINMAKPETLPVLNGVLDYRRQITNPYTGEVIKAVPGFNVIAAINEGYVGTLPMNEALKNRFVVIHVDYIDGDILKNVIKEQSLLQDDKQIEQIIKFNEDLRTMSKQGQISEEAASIRALLDLCDLITVMPVERAIKRTIIDKLEDEREQQAIYNAVELNF”, the “soluble on expression in E. coli” value was “not soluble”.

For “MGSDKIHHHHHHMALLTAETFRLQFNNKRRLRRPYYPRKALLCYQLTPQNGSTPTRGYFENKKKCHAEICFINEIKSMGLDETQCYQVTCYLTWSPCSSCAWELVDFIKAHDHLNLGIFASRLYYHWCKPQQKGLRLLCGSQVPVEVMGFPEFADCWENFVDHEKPLSFNPYKMLEELDKNSRAIKRRLERIKS”, the “soluble on expression in E. coli” value was “not soluble”.

As to “MGSDKIHHHHHHMALRIAFLTVGDPQRRTGGYLYHREVFRCWQARNQPVEEIVLGPADVAGQIAASNRAGQLVEAGRYDVIVVDALARAVVAPWLAHWQRLCPLVTLVHELPTVAGASDPREYEWEQMLLRADALVAVSDDGANTLIARGVEAARIHIASGGCDRLLSRMPVGKAREELVIAVAQWIPRKNLAHLVRVWGQVAEHPWRLELIGESDADPVYAGEVWQAIQHCPANVIVRGVLADDELAERYARASLFALPSRFEGYGLVFAEALACGLPVIAGAVGPVPALVGAGGMLVHPDDEQALSVALRTVMRDAHLRQHLSTAARQRASTLPRWQDTAQHLLCAIEWAYAQRHRVST”, the “soluble on expression in E. coli” value was “not soluble”.

“MGSDKIHHHHHHMANMKNSNDRIILFRKAGEKVDATKMLFLTEYGLSHEADTDTEDTMDGSYNTGGSVESTMSGTAKMFYGDDFADEIEDAVVDRVLYEAWEVESRIPGKNGDATKFKAKYFQGFHNKFELKAEANGIDEYEYEYGVNGRFQRGFATLPEAVTKKLKATGYRFHDTTKADALTGEDLTAIPQPKVDSSTVTPGEV”: the “soluble on expression in E. coli” value is given as “not soluble”.

On to “MGSDKIHHHHHHMANVIKLHKGLNINLKGKPAQEFFDVKQPDIYAIVPDDFHGVTPKVVVKEQEYVTAGGTLFVDKNHPEVKFVSPVSGVVTSVERGERRKVLSISIAAAKEQDYEEFGKKDVSTLTGEQVKAALLEAGLFSFIIQRPYIVVADPNAKPKGIFVSAFDTNPLAADFEFVLKGQEKDFQTGLDALAKMAKTYLNISVEQKSPALTNAKNVTVTAFDGPNPAGNVGVQINHISPINKGETVWTLRAEEVIFIGRLFNTGRVDLTRTIALTGSEVKKPAYCKLKVGALLTDIFAGRVNGGKNLRYINGNVLTGTLVKPNGFLGAHATSLTVIPEGDDRHEFLGFIMPRTDQYSANRSYFSWLCGNKEYTLDARIKGGERHMIMSGEYDKVFPMSIFPEYLIKAIIAGDIDRMEALGIYEVAPEDFAVCEFVDSSKLELQRIVRQGLDMLRKEMC”, for which the “soluble on expression in E. coli” value was “not soluble”.

Turning to “MGSDKIHHHHHHMAQNFHDNSQVSSEMSTAISRTAKPSSEFYSIFSEEEILGIICALEIRREIPLKYSYKGRGAKIWDDFYQKYIIPRWYRISNVEIELLKSNFKYFNDNIKSGEKINIVDVGAGNSYPVKDFVQRLNKLNKINKYVALDISEELLNLSKNNFKKWFPNVEFISSTIDIENNCVPKTLFQNNPDLEMDNTAKIFLHLGVTIGNHQNRDKVFKNFRESMGKNDFLVFTNEIGSNSKWDGNVRGGCKYHVEEIYGWVKNKVGIESEGCELVRKYDLKTDSIVANIRFNHDYTINFSRMGIDKKIEISEGEEITIWRHHKYEMPKLLQELERSGLQLIQYSTDKYKSHIMVICKISSN”, the “soluble on expression in E. coli” value was “not soluble”.

Consider “MGSDKIHHHHHHMAQQTPLYEQHTLCGARMVDFHGWMMPLHYGSQIDEHHAVRTDAGMFDVSHMTIVDLRGSRTREFLRYLLANDVAKLTKSGKALYSGMLNASGGVIDDLIVYYFTEDFFRLVVNSATREKDLSWITQHAEPFGIEITVRDDLSMIAVQGPNAQAKAATLFNDAQRQAVEGMKPFFGVQAGDLFIATTGYTGEAGYEIALPNEKAADFWRALVEAGVKPCGLGARDTLRLEAGMNLYGQEMDETISPLAANMGWTIAWEPADRDFIGREALEVQREHGTEKLVGLVMTEKGVLRNELPVRFTDAQGNQHEGIITSGTFSPTLGYSIALARVPEGIGETAIVQIRNREMPVKVTKPVFVRNGKAVA”, for which the “soluble on expression in E. coli” value is recorded as “not soluble”.

Regarding “MGSDKIHHHHHHMAQSDKDLTLTPLKGKSGQAYIGTYPNGDKIFVKINTTPILAALAKEQIAPQLLWAKRLGNGDMMSAQEWLDGRLLTRADMNSKQIIQVLLQMHKSKPLVNQLLQLNYKVETPLDLLLSWERSAPYQISENAYLQSVVAEMKRNLPDFKKDYATIVHGDVRHSNWVITTSGLVYLVDWDSVRVTDRMYDVAHILSHYIPHTRWVEWLSYYGYKQNTKVFQKIKWYGQLSYLSQILKYYENRDMENVNQEIYELRKFRESF”, the “soluble on expression in E. coli” value is “not soluble”.

Regarding “MGSDKIHHHHHHMARHALMRTELLPTFGMPDKKVDGFIARIRERHPKMIFGYPSAMSHIVPCAEQRGVRFDDLGIKVVFCTSERLYNHQRETIVRLFGCPVANGYGGRDAGFIAHECPNGNMHVITEDIVVEIIGEAGRVLPHRQSGKIVVTHLATRDYPFIRYRTGDIASLSEETCSCGRGLPLLTDIQGRNTDFVVAAEGTVLHGLALIYVVHDLNEVRTFKIVRKNREHTRILLAPEAGGDMTGIDTIIIDGFRCRLGAKVTVKFVDAVLAEKSGKFCYVASHVVLH”, the “soluble on expression in E. coli” value is “not soluble”.

With “MGSDKIHHHHHHMASESWMKTQAPDPTNLPAEINPEVPSIARVYDYFLGGKDNFPADRAAAAAVEKVFPQGKQLGRESRMLLRRATRELVRAGVRQFLDIGSGLPTAGNVHEIAHEIDPEVRVVYIDNDPVVLAHGRALLADEVTTTVVQADLRHPDGIFDNPEVRALLDFDQPVAVFLASILHHFDDSDDPWALSRKIRDRISSGSYMLITHFYDSGDPVCREVEQALLEGGLGSGWFRTKEQIERFFEGMDVLEPGVVAANEWRPDAETPTDSTTHHLLAGGLARKP”, the “soluble on expression in E. coli” value is reported as “not soluble”.

Take “MGSDKIHHHHHHMASKATSIDIAYRAGVSQSTVSRALRNSPLVNLETRQRIQAIAKELNYKVDKNASNLRMQNSHTLALLICEDPTNDESMINPFFLSMLGSITRATARQGYDLLVSFQQLSTDWHADYEDSNKADGIILLGYGDYMDYAHKLDKLIEKNTHFVIWGAEHNNKAVLSIGCDNHQGGFVATEHLLGLGHKHIAFLGDSSSRSPEFRDRYLGHVDALQSTGIEADTQLQHDAINTEASGYHAANVLLDSGVTFDAIFTASDLIAIGAIRALKKRGVLVPEQVAVVGYDDIPVASFANPALTTIKQDTQFAGEILVESVLKLIRGQEVSQRLIKTHLVVRSSCGANVEDN”: the “soluble on expression in E. coli” value is reported as “not soluble”.

For the origin of these results see the DeepSol protein solubility set.
